{
  "source": "patent US7740882B2",
  "about": "“Enhanced oral and transcompartmental delivery of therapeutic or diagnostic agents” (priority 2001, dated 2010)",
  "molecules": {"B1": {"name": "SMVT in BBMECs (Bos taurus) (protein)", "chain": "MSVGLSTATPLPPASDTDVVTSTFSLVDYVVFVLLLVLSLAIGLYHAYRGWGRHSIGQLLLADRKMGCLPVALSLLATFQSAVAILGVPSEIYRFGTQYWFLGCCYFLGLLIPAHVFIPIFYRLHITSAYEYLELRFNKAVRVCGTVTFIFQMVIYMGVVLYAPSLALNAVTGFDLWLSVLTLGIVCTIYTALGGLKAVIWTDVFQTLVMFLGQLAVIIVGSAKVGGLGHVWEVASQHGLISGIELDPDPFVRHTFWTLAFGGVFMMLSLYGVNQAQVQRYLSSRTEKAAVLSCYAVFPCQQVALSMGCLIGLVMFTYYQEYPMSTQQSQAAPDQFVLYFVMDLLRGLPGLPGLFVACLFSGSLSTISSAFNSLATVTMEDLIRPWFPHVSEVRATMLSRIIAFGYGLLCLGMAYISSQMGPVLQAAISIFGMVGGPLLGLFCLGMFFPCANPPGAIVGLLAGLIMAFWIGIGSIVTSMGSGRALSPPNGSSFSLSSNLTAVTMATLMPSTAASKPTGLQRLYSLSYLWYSAHNSTTVIVVGLAVSLLSGGMRGRTVDPRTIYPVLPKLLALLPLSCQKRLPCRAGSQDLSLEACMFPEKMSNGMLRGSRDQVDMAVPEEGPVQPGISPTFILQETSL"}, "B2": {"name": "human sodium dependent multivitamin transporter, hSMVT (Homo sapiens) (protein)", "chain": "MSVGVSTSAPLSPTSGTSVGMSTFSIMDYVVFVLLLVLSLAIGLYHACRGWGRHTVGELLMADRKMGCLPVALSLLATFQSAVAILGVPSEIYRFGTQYWFLGCCYFLGLLIPAHIFIPVFYRLHLTSAYEYLELRFNKTVRVCGTVTFIFQMVIYMGVVLYAPSLALNAVTGFDLWLSVLALGIVCTVYTALGGLKAVIWTDVFQTLVMFLGQLAVIIVGSAKVGGLGRVWAVASQHGRISGFELDPDPFVRHTFWTLAFGGVFMMLSLYGVNQAQVQRYLSSRTEKAAVLSCYAVFPFQQVSLCVGCLIGLVMFAYYQEYPMSIQQAQAAPDQFVLYFVMDLLKGLPGLPGLFIACLFSGSLSTISSAFNSLATVTMEDLIRPWFPEFSEARAIMLSRGLAFGYGLLCLGMAYISSQMGPVLQAAISIFGMVGGPLLGLFCLGMFFPCANPPGAVVGLLAGLVMAFWIGIGSIVTSMGSSMPPSPSNGSSFSLPTNLTVATVTTLMPLTTFSKPTGLQRFYSLSYLWYSAHNSTTVIVVGLIVSLLTGRMRGRSLNPATIYPVLPKLLSLLPLSCQKRLHCRSYGQDHLDTGLFPEKPRNGVLGDSRDKEAMALDGTAYQGSSSTCILQETSL"}},
  "key": {"[1]": {"molecular_target": "T1, SMVT in BBMECs (Bos taurus, UniProt A1L530)", "T1 construct": "endogenous in cells; host or cells: primary bovine brain microvessel endothelial cells (BBMECs)", "T1 sequence (A1L530 1-638)": "B1 chain", "assay": "Biotin uptake by BBMECs (characterization of biotin transporter)", "format": "in vitro ADME, bovine"}, "[2]": {"molecular_target": "T2, SMVT (Homo sapiens, UniProt Q9Y289)", "T2 sequence (Q9Y289 1-635)": "B2 chain", "assay": "Inhibition of substrate uptake in CHO/hSMVT cells by 50 μM SMVT substrates", "format": "in vitro ADME", "parameters": "expressed in transfected cells; host or cells: CHO cells (ATCC), transient Lipofectamine transfection; plasmid was a gift of Dr. Puttur D. Prasad", "conditions": "for inhibition of RI-K(biotin)-Tat9 uptake: 0.1 μM RI-K(biotin)-Tat9, inhibitor 50 μM; for inhibition of biotin-PEG-3400 uptake: 0.1 μM biotin-PEG-3400, inhibitor 50 μM; for inhibition of PEG:(RI-K(biotin)-Tat9)8 uptake: 0.1 μM conjugate, inhibitor 50 μM"}, "[3]": {"assay": "in vitro", "conditions": "human, Caco-2", "description": "(§1) Caco-2 Cell Transport Studies An Ussing-type diffusion chamber system (Harvard Apparatus, Natick, Mass.) was used to perform transport studies. The apical solution was a MES Ringer's buffer (pH 6.5) consisting of 114.0 mM NaCl, 5.0 mM KCl, 1.1 mM MgSO4, 1.25 mM CaSO4, and 15 mM 2-(N-morpholino)ethanesulfonic acid (MES). The basolateral solution was a Ringer's buffer (pH 7.4) consisting of 114.0 mM NaCl, 5.0 mM KCl, 1.65 mM Na2HPO4, 0.3 mM NaH2PO4, 25 mM NaHCO3, 1.1 mM MgSO4, and 1.25 mM CaSO4. Both buffers contained 25 mM glucose and were adjusted to 290 mOsm/kg using a vapor pressure osmometer (Wescor Inc, Logan, Utah). For transport experiments using filters with cell monolayers, the inserts were rinsed with Ringer's buffet containing 25 mM glucose three times over a 20 min period at room temperature. The TEER was measured for each monolayer before it was mounted onto the diffusion chamber, which was pre-warmed to 37° C. by placement on the heating blocks. The volume of each half-chamber was 5 ml and the surface area of the Snapwell™ filters available for drug transport was 1 cm^2. […] The donor solution consisted of radiolabeled permeant in the apical buffer [apical (AP) to basolateral (BL) study]. Starting at 30 min, samples were taken from the receptor chamber every 15 min until the end of the experiment (105 min). A minimum of three monolayers was used to determine the permeability of test compound in each study and sample analysis was performed using scintillation counting (Perkin Elmer, Gaithersburg, Md.).\n(§2) The Michaelis-Menten kinetic parameters of Caco-2 and CHO cell transport were then estimated using non-linear regression.\n(§3) Prior to experimentation, diffusion chambers mounted with the Snapwells™ containing Caco-2 cells were equilibrated at 5° C., 10° C., 15° C., 25° C. and 37° C.\n(§4) [formula] where Pe is the effective permeability of the substrate transported, Cs is the substrate concentration and Pm and Pc represent the passive and carrier-mediated component of the permeability. All data were initially fitted to a 3-parameter model (Pc, Pm, Km for Caco-2 studies, Jmax, Pm, Km for CHO studies).\n(§5) Caco-2 Cell Transport Studies An Ussing-type diffusion chamber system (Harvard Apparatus, Natick, Mass.) was used to perform transport studies. The apical solution was a MES Ringer's buffer (pH 6.5) consisting of 114.0 mM NaCl, 5.0 mM KCl, 1.1 mM MgSO4, 1.25 mM CaSO4, and 15 mM 2-(N-morpholino)ethanesulfonic acid (MES). The basolateral solution was a Ringer's buffer (pH 7.4) consisting of 114.0 mM NaCl, 5.0 mM KCl, 1.65 mM Na2HPO4, 0.3 mM NaH2PO4, 25 mM NaHCO3, 1.1 mM MgSO4, and 1.25 mM CaSO4. Both buffers contained 25 mM glucose and were adjusted to 290 mOsm/kg using a vapor pressure osmometer (Wescor Inc, Logan, Utah). For transport experiments using filters with cell monolayers, the inserts were rinsed with Ringer's buffer containing 25 mM glucose three times over a 20 min period at room temperature. The TEER was measured for each monolayer before it was mounted onto the diffusion chamber, which was pre-warned to 37° C. by placement on the heating blocks."}, "[4]": {"system": "Caco-2 cell monolayers", "assay": "Absorptive (AP to BL) transport across Caco-2 cell monolayers", "conditions": "Caco-2 AP to BL", "description": "as §1, §2, §3, §4, §5"}, "[5]": {"molecular_target": "T3, fMLF receptor on differentiated HL-60 cells (Homo sapiens, UniProt P21462)", "T3 construct": "endogenous in cells; host or cells: HL-60 cells differentiated with 1.3% DMSO for 48 h; whole cells", "T3 sequence (P21462 1-350)": "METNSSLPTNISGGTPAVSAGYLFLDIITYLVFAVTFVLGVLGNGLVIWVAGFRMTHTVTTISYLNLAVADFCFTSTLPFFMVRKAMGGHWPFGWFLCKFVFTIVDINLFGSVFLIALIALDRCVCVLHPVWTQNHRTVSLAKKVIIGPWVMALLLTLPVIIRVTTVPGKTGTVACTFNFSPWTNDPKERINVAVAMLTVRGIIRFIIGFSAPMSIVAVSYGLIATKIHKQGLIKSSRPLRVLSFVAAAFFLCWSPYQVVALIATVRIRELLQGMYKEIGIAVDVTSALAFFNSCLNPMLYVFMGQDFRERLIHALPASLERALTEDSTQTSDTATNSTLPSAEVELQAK", "assay": "Competitive receptor binding assay with fML[3H]F", "conditions": "for Avidity Activation EC50/Kd: ratio of EC50 (calcium) to Kd"}, "[6]": {"system": "differentiated HL-60 cells", "assay": "Intracellular calcium assay (45Ca release from intracellular stores)", "format": "cell-based, human", "conditions": "for EC50: differentiated HL-60 cells, calcium release, read-out: Cell Activation EC50", "experimental": "Intracellular Calcium Assay. HL-60 cells (2×10^5 cells/mL) were grown in the presence of 1.3% DMSO for 5 days. For each time course experiment, 2×10^6 cells were resuspended in 5 mL of HBSS containing 2 mCi/mL of ^45CaCl2 as the sole source of calcium. After 90 min incubation at 37° C., cells were washed twice as above with cold HBSS. […] Cell pellets were treated with 0.5% Triton X-100/0.1 M NaOH and centrifuged in tubes containing 0.3 mL of 10% sucrose and radioactivity associated with the pellets was measured; this represents vesicle-associated ^45Ca. The top portion of the tube, which contained the cytoplasmic ^45Ca was also measured."}, "[7]": {"substrate": "O=C(O)CCCC[C@@H]1SC[C@@H]2NC(=O)N[C@@H]21", "assay": "cells, lysate or membranes named", "conditions": "37° C."}, "[8]": {"conditions": "Kd multiplied by average number of fMLF moieties, read-out: Relative Avidity Kd/fMLP"}, "[9]": {"conditions": "differentiated HL-60 cells, competition with fML[3H]F, read-out: Avidity Kd"}},
  "note": "Entries after “also recorded” stand apart in the source; their conditions may differ. Like-named read-outs stand apart in the source and are kept apart here.",
  "data": [
    {"molecule": "C[C@@H]1NC(=O)N[C@@H]1CCCCCC(=O)O", "note": "[desthiobiotin]", "values": [
      {"measurement": "inhibition of biotin uptake", "setting": "[1]", "value": "inhibited the uptake of biotin significantly"},
      {"measurement": "inhibition of RI-K(biotin)-Tat9 uptake", "setting": "[2]", "value": "significantly inhibited; also recorded: significantly lowered (p<0.001)"},
      {"measurement": "inhibition of biotin-PEG-3400 uptake", "setting": "[2]", "value": "significantly (p<0.01) inhibited"},
      {"measurement": "inhibition of PEG:(RI-K(biotin)-Tat9)8 uptake", "setting": "[2]", "value": "significantly lower (p<0.05)"}
    ]},
    {"molecule": "N[C@@H]1[C@H](CCCCC(=O)O)SC[C@@H]1N", "note": "[diaminobiotin]", "values": [
      {"measurement": "inhibition of biotin uptake", "setting": "[1]", "value": "very weak"}
    ]},
    {"molecule": "N=C1N[C@H]2[C@H](CS[C@H]2CCCCC(=O)O)N1", "note": "[iminobiotin]", "values": [
      {"measurement": "inhibition of biotin uptake", "setting": "[1]", "value": "very weak"}
    ]},
    {"molecule": "OC[C@@H](O)[C@@H](O)[C@H](O)[C@H](O)CO", "note": "[mannitol]", "values": [
      {"measurement": "Papp A→B at 105 min", "setting": "[3]", "value": 2.12, "unit": "×10⁻⁶ cm/s"},
      {"measurement": "absorptive/effective permeability (Pe)", "setting": "[4]", "value": "1.42 (±0.28)×10^−6 cm/sec"}
    ]},
    {"molecule": "CC(C)(CO)[C@@H](O)C(=O)NCCC(=O)O", "note": "[pantothenic acid]", "values": [
      {"measurement": "inhibition of biotin uptake", "setting": "[1]", "value": "inhibited the uptake of biotin significantly"},
      {"measurement": "inhibition of RI-K(biotin)-Tat9 uptake", "setting": "[2]", "value": "significantly inhibited"},
      {"measurement": "inhibition of biotin-PEG-3400 uptake", "setting": "[2]", "value": "significantly (p<0.01) inhibited"},
      {"measurement": "inhibition of PEG:(RI-K(biotin)-Tat9)8 uptake", "setting": "[2]", "value": "significantly lower (p<0.05)"}
    ]},
    {"molecule": "B3-PEG-fMLF3: 3-arm branched amino-PEG fully coupled with fMLF", "values": [
      {"measurement": "Kd", "setting": "[5]; [8]", "value": 5.7, "unit": "nM"},
      {"measurement": "Kd", "setting": "[5]; [9]", "value": 1.9, "unit": "nM"},
      {"measurement": "Avidity Activation EC50/Kd", "setting": "[5]", "value": 5.05},
      {"measurement": "EC50", "setting": "[6]", "value": 9.6, "unit": "nM"}
    ]},
    {"molecule": "B4-PEG-fMLF4: 4-arm branched amino-PEG fully coupled with fMLF", "values": [
      {"measurement": "Kd", "setting": "[5]; [8]", "value": 3.2, "unit": "nM"},
      {"measurement": "Kd", "setting": "[5]; [9]", "value": 0.8, "unit": "nM"},
      {"measurement": "Avidity Activation EC50/Kd", "setting": "[5]", "value": 6.25},
      {"measurement": "EC50", "setting": "[6]", "value": 5, "unit": "nM"}
    ]},
    {"molecule": "B8-PEG-fMLF1.1: 8-arm branched amino-PEG with on average 1.1 fMLF residues per polymer", "values": [
      {"measurement": "Kd", "setting": "[5]; [8]", "value": 209, "unit": "nM"},
      {"measurement": "Kd", "setting": "[5]; [9]", "value": 190, "unit": "nM"},
      {"measurement": "calcium flux", "setting": "[6]; even at 100 nM polymer", "value": "virtually no flux of calcium"}
    ]},
    {"molecule": "B8-PEG-fMLF5.5: 8-arm branched amino-PEG with on average 5.5 fMLF residues per polymer", "values": [
      {"measurement": "Kd", "setting": "[5]; [8]", "value": 2.75, "unit": "nM"},
      {"measurement": "Kd", "setting": "[5]; [9]", "value": 0.5, "unit": "nM"},
      {"measurement": "Avidity Activation EC50/Kd", "setting": "[5]", "value": 10.6},
      {"measurement": "EC50", "setting": "[6]", "value": 5.3, "unit": "nM"}
    ]},
    {"molecule": "B8-PEG-fMLF8: 8-arm branched amino-PEG with 8 fMLF residues per polymer", "values": [
      {"measurement": "increase in avidity over B8-PEG-fMLF1.1", "setting": "[5]", "value": "more than 1000 fold"},
      {"measurement": "Kd", "setting": "[5]; [8]", "value": 1.44, "unit": "nM"},
      {"measurement": "fMLF receptors occupied", "setting": "[5]; at 1 nM", "value": "~100", "unit": "%"},
      {"measurement": "Kd", "setting": "[5]; [9]", "value": 0.18, "unit": "nM"},
      {"measurement": "Avidity Activation EC50/Kd", "setting": "[5]", "value": 27.8},
      {"measurement": "cellular activation", "setting": "[6]; at 1 nM", "value": "little or no cellular activation"},
      {"measurement": "EC50", "setting": "[6]", "value": 5, "unit": "nM"}
    ]},
    {"molecule": "PEG/A-fMLF4: linear PEG-aspartate copolymer (29 kDa) with four fMLF residues", "values": [
      {"measurement": "Kd", "setting": "[5]; [8]", "value": 4.4, "unit": "nM"},
      {"measurement": "Kd", "setting": "[5]; [9]", "value": 1.1, "unit": "nM"}
    ]},
    {"molecule": "B1", "values": [
      {"measurement": "Km", "setting": "[7]; other: BBMECs", "value": 54.6, "unit": "µM"}
    ]},
    {"molecule": "B2", "values": [
      {"measurement": "Km", "setting": "[7]; other: uptake in CHO/hSMVT cells, 10 min, pH 7.5", "value": "1.39 (0.59) μM"}
    ]}
  ]
}
